According to patent US8507431B2, “Methods for accelerating wound healing by administration of a preadipocyte modulator or an adipocyte modulator” (HealOr Ltd., priority 2003, dated 2013):

Experiments:
primary skin fibroblasts = experiment: Fibroblasts scratch migration assay in vitro; type: cell-based; conditions: 24 hrs; for fibroblasts migration to close the wound gap vs non-treated and insulin: hIL-8 5 ng/ml, hIL-1β 0.2 ng/ml, hIL-4 2 ng/ml, apelin 0.2 μg/ml, adiponectin 1 μg/ml
Description: Primary skin fibroblasts were isolated and plated on 5 ml non-coated dishes until confluence in low Ca^2+ medium, and an artificial crossover scratch was formed in each dish with a 200 μm tip. Cells were either non-treated (control) or treated with insulin (0.1 unit/ml), hIL-8 (5 ng/ml), hIL-1β (0.2 ng/ml), hIL-4 (2 ng/ml), apelin (0.2 μg/ml) or adiponectin (1 μg/ml); and collected after 24 hrs.
Primary keratinocytes/fibroblasts were isolated and plated on 5 ml non-coated dishes until confluence in low Ca^2+ medium, and an artificial cross-over scratch was formed in each dish with a 200 μm tip. Then, cells were either non-treated or treated with visfatin (0.1 μg/ml or 0.0.1 μg/ml) or insulin (0.1 unit/ml) for up to 48 hrs.

primary keratinocytes [1] = experiment: Keratinocytes migration (wound scratch) assay in vitro; type: cell-based, murine
Description: (§1) Primary keratinocytes were isolated from newborn skin as described in reference 18. Keratinocytes were cultured in Eagle's Minimal Essential Medium (EMEM) containing 8% Chelex (Chelex-100, BioRad) treated fetal bovine serum. To maintain a proliferative basal cell phenotype, the final Ca^2+ concentration was adjusted to 0.05 mM. Experiments were performed five to seven days after plating.
Primary mouse keratinocytes were untreated or treated with, PPARγ antagonist GW9662 (μM) or PPARγ agonist troglitazone (μM). Wound Scratch Assay was performed 24 hours following treatment, and representative fields were photographed immediately after the wounding (Day 0) and 48 hours later (Day 2). The average of wound closure represented as percentage in comparison to the initial width of the wound scratch (% of wound closure).
The effect of inhibiting or enhancing the activity of peroxisome proliferators-activated receptor gamma (PPARγ) on keratinocytes migration was evaluated utilizing the in vitro migration assay. Thus, primary keratinocytes were isolated and plated on 5 ml non-coated dishes until confluence in low Ca^2+ medium, and an artificial crossover scratch was formed in each dish with a 200 μm tip. Cells were either non-treated (control) or treated daily with PPARγ modulators.
In order to test the effect of different adipokines on keratinocyte migration to close the wound gap, an in vitro scratch assay was used. Thus, primary keratinocytes were isolated and plated on 5 ml non-coated dishes until confluence in low Ca^2+ medium, and an artificial crossover scratch was formed in each dish with a 200 μm tip. Cells were either non-treated (control) or treated daily with insulin (0.1 unit/ml), hIL-4 (2 ng/ml), hIL-6 (0.2 ng/ml), leptin (4 μg/ml) or apelin (0.02 μg/ml or 0.2 μg/ml).
Primary keratinocytes/fibroblasts were isolated and plated on 5 ml non-coated dishes until confluence in low Ca^2+ medium, and an artificial cross-over scratch was formed in each dish with a 200 μm tip. […]

[2] = system: Full thickness wounds on the back of C57BL mice; experiment: Wound healing assay, full thickness incision wounds in mice; type: in vivo
Description: […] […] Wound biopsies were sampled, processed and analyzed morphologically and/or histochemically and/or immunohistochemically for various wound healing parameters, i.e., wound contraction, adipocytes migration and differentiation, epidermal migration, and epidermal closure.
The wound area was measured and compared to untreated control wounds; and wound contraction was calculated as the percent reduction of the wound area.
Wound biopsies were fixed in 4% paraformaldehyde then dehydrated in increasing concentrations of ethanol (50-100%). The dehydrated preparations were immersed first in xylene, then paraffin and xylene 1:1 solution, then in pure melted paraffin (60° C.). The paraffin blocks were then sectioned by a microtome and the sections were mounted on Super Frost^+™ slides.
Paraffin embedded wound-section slides were incubated at 60° C. for 60 minutes and were de-parafinated by washing the slides twice with toluene (100%) for 10 minutes, then rehydrated in decreasing concentration of ethanol (100-50%) for 5 minutes each. The slides were stained with hematoxylin (ready to use solution) for 10 minutes, rinsed with water, stained with eosin (0.5% in DDW) for 5 minutes, and then washed with 70% ethanol by 2 quick immersions. Thereafter, the slides were dehydrated by washing once with 95% ethanol for 2 minutes, twice with 100% ethanol for 5 minutes, and twice with xylene (100%) for 10 minutes, then mounted with entellan (MERCK Darmstadt Germany).
Paraffin embedded wound-section slides were de-parafinated as described for H&E staining above and incubated in blocking solution (5% BSA and 0.5% Tween 20™ in PBS) for 1 hour. […]
The effect of inhibiting or enhancing the activity of PPARγ using PPARγ antogonist and agonist, respectively, on wound healing was also evaluated in vivo. […]
The effect of adipsin (complementing Factor D, which is secreted from adipocytes) on wound healing was evaluated in vivo. […] The mice were sacrificed 6 days after wounding and the wounds were then analyzed. […]

primary keratinocytes [3] = experiment: Differentiation assay for Keratin 1 (western blot); type: cell-based, murine; conditions: visfatin 0.01 or 0.1 μg/ml, 24 hrs; vs non treated and insulin treated cells
Description: as §1
(§2) Primary keratinocytes were isolated, plated on 100 mm tissue dishes and maintained for 5 days in medium with low Ca^2+ (0.05 mM) until 80% confluence. Then, cells were either non-treated (control) or treated with insulin (0.1 unit/ml, 1 μM) or visfatin (0.01 μg/ml or 0.1 μg/ml). 24 hrs post treatment cells were lysed and analyzed for K1 (Keartin 1) expression by western blot analysis.

primary keratinocytes [4] = experiment: Differentiation assay for filaggrin (western blot); type: cell-based, murine; conditions: visfatin 0.01 and 0.1 μg/ml, 24 hrs
Description: as §1
as §2, with “until reaching” for “until”, “with” for “with insulin (0.1 unit/ml, 1 μM) or”, “μg/ml). Terminal differentiation was induced by adding Ca^2+ to the medium 6 hrs post treatment.” for “μg/ml).”, “filaggrin” for “K1 (Keartin 1)”

primary keratinocytes [5] = experiment: Thymidine incorporation assay; type: cell-based, murine
Description: as §1
Primary keratinocytes were isolated, plated on 6 well tissue dishes and maintained for 5 days in medium with low Ca^2+ (0.05 mM) until 80% confluence. Then, cells were either non-treated (control) or treated with visfatin (0.1 μg/ml or 0.01 μg/ml) for 24 hrs. 6 hrs post treatment Ca^2+ mM was added to the medium, and the next day, cells were pulsed with [^3H]thymidine (1 uCi/ml) for 1 hour. After incubation, cells were washed three times with PBS and 5% trichloroacetic acid (TCA) was added into each well for 1 hour. The solution was then removed and cells were stabilized in 1M NaOH. The labeled thymidine incorporated into the cells was counted in a ^3H-window of a Tricarb liquid scintillation counter.

primary keratinocytes [6] = experiment: Western blot analysis for PCNA expression (proliferation marker); type: cell-based, murine; conditions: visfatin 0.01 μg/ml, 24 hrs post treatment
Description: as §1
as §2, with “Ca^+” for “Ca^2+”, “lyzed” for “lysed”, “PCNA” for “K1 (Keartin 1)”

[7] = visfatin 0.01 μg/ml daily for 7 days

Molecule | fibroblasts migration to close the wound gap vs non-treated and insulin (primary skin fibroblasts) | keratinocyte migration in scratch assay vs control and insulin (primary keratinocytes [1]; treated daily, 24 and 48 hrs, hIL-4 2 ng/ml, apelin 0.2 μg/ml) | healing parameters (epidermal closure, dermal contraction, matrix remodeling) ([2]; adiponectin 1 μg/ml daily for 7 days, 20 mm incision, H&E and Masson Trichrome) | fibroblast migration and proliferation (primary skin fibroblasts; visfatin 0.01 μg/ml, insulin 0.1 unit/ml as comparison) | keratinocyte differentiation (Keratin 1 expression) (primary keratinocytes [3]) | adipocytes at the wound site [2, 7] | inflammation in the wound [2, 7] | filaggrin levels (terminal differentiation) (primary keratinocytes [4]) | migration of keratinocytes relative to controls (primary keratinocytes [1]; visfatin 0.1 μg/ml or 0.01 μg/ml, up to 48 hrs) | migration of keratinocytes (primary keratinocytes [1]; visfatin 0.1 μg/ml, 48 hrs) | proliferation rate under conditions promoting cell differentiation (primary keratinocytes [5]; Ca2+ 0.12 mM addition to the medium, visfatin 0.1 or 0.01 μg/ml) | thymidine incorporation (proliferation) (primary keratinocytes [5]; visfatin 0.01 μg/ml vs 0.1 μg/ml and controls, 24 hrs) | PCNA expression levels in keratinocytes (primary keratinocytes [6])
IL-4: adipokine hIL-4 (protein, UniProt P05112 25-153, looked up) Interleukin-4: HKCDITLQEIIKTLNSLTEQKTLCTELTVTDIFAASKNTTEKETFCRAATVLRQFYSHHEKDTRCLGATAQQFHRHKQLIRFLKRLDRNLWGLAGLNSCPVKEANQSTLENFLERLKTIMREKYSKCSS | did not induce any additional effect compared to controls | keratinocyte migration was highly significant |  |  |  |  |  |  |  |  |  |  | 
adiponectin (protein, UniProt Q15848 19-244, looked up, adipokine) Adiponectin: ETTTQGPGVLLPLPKGACTGWMAGIPGHPGHNGAPGRDGRDGTPGEKGEKGDPGLIGPKGDIGETGVPGAEGPRGFPGIQGRKGEPGEGAYVYRSAFSVGLETYVTIPNMPIRFTKIFYNQQNHYDGSTGKFHCNIPGLYYFAYHITVYMKDVKVSLFKKDKAMLFTYDQYQENNVDQASGSVLLHLEVGDQVWLQVYGEGERNGLYADNDNDSTFTGFLLYHDTN | promoted fibroblasts migration to completely close the wound gap |  | better healing parameters |  |  |  |  |  |  |  |  |  | 
visfatin (protein, UniProt P43490 1-491, looked up, insulin-mimetic hormone secreted from visceral adipose tissue) Nicotinamide …: MNPAAEAEFNILLATDSYKVTHYKQYPPNTSKVYSYFECREKKTENSKLRKVKYEETVFYGLQYILNKYLKGKVVTKEKIQEAKDVYKEHFQDDVFNEKGWNYILEKYDGHLPIEIKAVPEGFVIPRGNVLFTVENTDPECYWLTNWIETILVQSWYPITVATNSREQKKILAKYLLETSGNLDGLEYKLHDFGYRGVSSQETAGIGASAHLVNFKGTDTVAGLALIKKYYGTKDPVPGYSVPAAEHSTITAWGKDHEKDAFEHIVTQFSSVPVSVVSDSYDIYNACEKIWGEDLRHLIVSRSTQAPLIIRPDSGNPLDTVLKVLEILGKKFPVTENSKGYKLLPPYLRVIQGDGVDINTLQEIVEGMKQKMWSIENIAFGSGGGLLQKLTRDLLNCSFKCSYVVTNGLGINVFKDPVADPNKRSKKGRLSLHRTPAGNFVTLEEGKGDLEEYGQDLLHTVFKNGKVTKSYSFDEIRKNAQLNIELEAAHH |  |  |  | promotes fibroblast migration and proliferation to the extent of insulin treatment | promotes keratinocyte differentiation primarily terminal differentiation | attracts adipocytes to the wound site | reduces inflammation | marked elevation in filaggrin levels | does not halt or interfere with migration of keratinocytes | induced migration in keratinocytes though not significantly | inhibited even further | lower thymidine incorporation than the higher dose (0.1 μg/ml) and controls | significantly decreased
